Assay results from paper PMC3832543.
Several values for one entry are separate records, joined by “and”; a condition that tells them apart may be missing. Equal values may be shown once.

Target: MCL-1ES, wild type (amino acids 1-197), Flag-tagged (human)
Assay: cross-linking; 293T cells; heavy membrane fraction cross-linked with glutaraldehyde, western blot; increasing MCL-1ES expression; also with MCL-1L over-expressed or knocked down

stoichiometry N: 2 and 3
Substance: MCL-1ES, wild type (amino acids 1-197), Flag-tagged (natural protein)
